Measured values published in paper PMC5292753, “Structural analysis and evolution of specificity of the SUMO UFD E1-E2 interactions” (Scientific Reports, 2017).
Like-named read-outs stand apart in the source and are kept apart here.

Key:
[1] = target: SUMO E2 (Ubc9) (Homo sapiens) (UniProt P63279); assay: NMR; conditions: cited from earlier work
[2] = target: SUMO E2 (Ubc9) (Homo sapiens) (UniProt P63279); conditions: cited from earlier work
[3] = target: T1, human SUMO E2 conjugating enzyme Ubc9, full length (human, UniProt P63279 1-158, lysines methylated (borane-dimethylamine complex and formaldehyde), only in the complex that was crystallised); assay: native gel or EMSA; native gel electrophoresis of human E1 UFD domain with Ubc9 (Supplementary Fig. S1); conditions: both partners purified
T1 construct: SUMO-conjugating enzyme Ubc9, human, full length; Cloned in pET28a; the His tag was removed with thrombin, so a few residues of the vector may remain at the N-terminus; The complex with the UFD was lysine-methylated after gel filtration and only then crystallised; also called hSUMO Ubc9; source: E. coli BL21(DE3) pLysS, purified (Ni-NTA, thrombin, Superdex75 gel filtration); not shown: His6, …
T1 sequence (P63279 whole entry, the tested form may be a part): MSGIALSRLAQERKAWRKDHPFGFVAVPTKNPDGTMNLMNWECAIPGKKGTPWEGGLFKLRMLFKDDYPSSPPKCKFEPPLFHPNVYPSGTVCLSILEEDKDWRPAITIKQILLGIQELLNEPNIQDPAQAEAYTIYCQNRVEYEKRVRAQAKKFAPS

Chain of SUMO E2 (Ubc9) (Homo sapiens) (P63279 2-158): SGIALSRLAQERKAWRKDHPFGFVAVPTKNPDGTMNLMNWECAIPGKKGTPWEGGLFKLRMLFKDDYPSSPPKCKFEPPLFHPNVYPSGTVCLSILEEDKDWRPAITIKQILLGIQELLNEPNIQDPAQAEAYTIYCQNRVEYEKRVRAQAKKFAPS

For “SUMO E1 Cys domain Cys domain (from UniProt Q9UBT2)”, which Kd [1] is on record?
Its Kd is 87 µM.

For SUMO E1 UFD UFD (from UniProt Q9UBT2), which Kd [2] is on record?
Its Kd is 1.2 µM.

B1: human SUMO E1 Uba2 ubiquitin-fold domain (UFD), residues 447-547 (domain or fragment, UniProt Q9UBT2 447-547, looked up)
chain: KPEVTVRLNVHKVTVLTLQDKIVKEKFAMVAPDVQIEDGKGTILISSEEGETEANNHKKLSEFGIRNGSRLQADDFLQDYTLLINILHSEDLGKDVEFEVV
modifications: lysines methylated (borane-dimethylamine complex and formaldehyde), only in the complex that was crystallised
notes: designed from the structure of full-length human SAE1-SAE2 (PDB 1Y8Q); Cloned in pET28a; the His tag was removed with thrombin, so a few residues of the vector may remain at the N-terminus; The complex with Ubc9 was lysine-methylated after gel filtration and only then crystallised; the native gel and the gel filtration used the unmethylated protein; also called E1 UFD domain; HsUba2 UFD; source: …
Does B1 bind [3]?
Result: binds
